From US20020155114A1 (published 2002)

B1: scFv S25 (scFv)
scFv: QVKLQQSGAELVRPGASVKLSCKASGYSLTSYWMNWVKQRPGQGLEWIGMIHPSDSDTRFNQKFEDKATLTVDTSSSTAYMQLSSPTSEDSAVYYCARGLYNGFWYFDVWGQGTTVTVSSGGGGSGGGGSGGGGSDIELTQSPALMAASPGEKVIITCSVSSSISSSNLHWYQQKSGTSPKPWIYGTSNLASGVPVRFSGSGSGTSYSLTISSMEAEDAATYYCQQWSSYPLTFGAGTKLEIKR
B2: scFv C25 (scFv)
scFv: QVQLQESGGGLVKPGGSLKLSCAASGFTFSDYYMYWVRQTPEKRLEWVATISDGGSYTYYPDSVKGRFTISRDNAKNNLYLQMSSLKSEDTAMYYCSRYRYDDAMDYWGQGTTVTVSSGGGGSGGGGSGGGGSDIELTQSPASLAVSLGQRATISCRASESVDSYGHSFMQWYQQKPGQPPKLLIYRASNLEPGIPARFSGSGSGTDFTLTINPVEADDVATYYCQQSNEDPFTFGSGTKLEIKR
B3: scFv 1C6 (scFv)
scFv: QIQLLQSGGGVVQPGRSLRLSCAASGFTFSSYAMHWVRQAPGKGLEWVAVISYDGSNKYYADSVKGRFTISRDNSKNTLYLQMNSLRAEDTAVYYCARDWSEGYYYYGMDVWGQGTTVIVSSGGGGSGGGGSGGGGSDIELTQSPASLAVSLGRRATTSCRASESVEYYGTSLMQWYQQKPGQPPKLLIYAASNVESGVPARFSGSGSGTDFSLNIHPVEEEDIAMYFCQQSRKVPWTFGGGTKLEIKR
B4: scFv 1F3 (scFv)
scFv: EVQLQQSGAELVKPGASVKLSCKASGYTFTSFWMHWVKQAPGRGLEWIGRLDPNSGETKYNEKFKSKATLTVDKPSSTAYMELSSLTSEDSAVYYCAREAYGYWNFDVWGTGTTVTVSSGGGGSGGGGSGGGGSDIELTQSPASMSASPGEKVTMTCRATSSVSSSYLHWYQQKSGASPKLWIYSASNLASGVPSRFSGSGSGTSYSLTISSVEAEDAATYYCQQYIGYPYTFGGGTKLEIKR

Key:
[1] = biological target: T1, BoNT/A Hc (C-terminal domain of botulinum neurotoxin type A heavy chain, binding domain) (Clostridium botulinum (type A serotype), UniProt P0DPI0 860-1296)
T1 sequence (P0DPI0 860-1296): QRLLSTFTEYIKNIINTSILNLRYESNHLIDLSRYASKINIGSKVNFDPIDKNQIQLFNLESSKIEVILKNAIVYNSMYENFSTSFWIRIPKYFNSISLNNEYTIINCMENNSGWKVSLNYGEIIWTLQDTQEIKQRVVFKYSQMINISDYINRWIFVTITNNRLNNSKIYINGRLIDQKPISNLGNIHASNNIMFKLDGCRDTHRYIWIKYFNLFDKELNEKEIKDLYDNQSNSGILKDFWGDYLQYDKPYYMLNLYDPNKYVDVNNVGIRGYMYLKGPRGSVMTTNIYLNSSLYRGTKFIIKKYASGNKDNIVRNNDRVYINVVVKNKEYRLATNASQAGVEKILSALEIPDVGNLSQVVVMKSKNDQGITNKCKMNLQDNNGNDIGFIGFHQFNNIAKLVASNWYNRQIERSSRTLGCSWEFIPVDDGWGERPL

[2] = biological target: T1, BoNT/A Hc (C-terminal domain of …); test: SPR (BIAcore), BoNT/A Hc coupled to CM5 chip, purified scFv in flow
[3] = biological target: botulinum neurotoxin type A (BoNT/A), pure holotoxin (Clostridium botulinum (type A serotype), UniProt P0DPI0 2-1296); test: cell-based or functional assay
Sequence of botulinum neurotoxin type A (BoNT/A), pure holotoxin (P0DPI0 2-1296 limits assumed): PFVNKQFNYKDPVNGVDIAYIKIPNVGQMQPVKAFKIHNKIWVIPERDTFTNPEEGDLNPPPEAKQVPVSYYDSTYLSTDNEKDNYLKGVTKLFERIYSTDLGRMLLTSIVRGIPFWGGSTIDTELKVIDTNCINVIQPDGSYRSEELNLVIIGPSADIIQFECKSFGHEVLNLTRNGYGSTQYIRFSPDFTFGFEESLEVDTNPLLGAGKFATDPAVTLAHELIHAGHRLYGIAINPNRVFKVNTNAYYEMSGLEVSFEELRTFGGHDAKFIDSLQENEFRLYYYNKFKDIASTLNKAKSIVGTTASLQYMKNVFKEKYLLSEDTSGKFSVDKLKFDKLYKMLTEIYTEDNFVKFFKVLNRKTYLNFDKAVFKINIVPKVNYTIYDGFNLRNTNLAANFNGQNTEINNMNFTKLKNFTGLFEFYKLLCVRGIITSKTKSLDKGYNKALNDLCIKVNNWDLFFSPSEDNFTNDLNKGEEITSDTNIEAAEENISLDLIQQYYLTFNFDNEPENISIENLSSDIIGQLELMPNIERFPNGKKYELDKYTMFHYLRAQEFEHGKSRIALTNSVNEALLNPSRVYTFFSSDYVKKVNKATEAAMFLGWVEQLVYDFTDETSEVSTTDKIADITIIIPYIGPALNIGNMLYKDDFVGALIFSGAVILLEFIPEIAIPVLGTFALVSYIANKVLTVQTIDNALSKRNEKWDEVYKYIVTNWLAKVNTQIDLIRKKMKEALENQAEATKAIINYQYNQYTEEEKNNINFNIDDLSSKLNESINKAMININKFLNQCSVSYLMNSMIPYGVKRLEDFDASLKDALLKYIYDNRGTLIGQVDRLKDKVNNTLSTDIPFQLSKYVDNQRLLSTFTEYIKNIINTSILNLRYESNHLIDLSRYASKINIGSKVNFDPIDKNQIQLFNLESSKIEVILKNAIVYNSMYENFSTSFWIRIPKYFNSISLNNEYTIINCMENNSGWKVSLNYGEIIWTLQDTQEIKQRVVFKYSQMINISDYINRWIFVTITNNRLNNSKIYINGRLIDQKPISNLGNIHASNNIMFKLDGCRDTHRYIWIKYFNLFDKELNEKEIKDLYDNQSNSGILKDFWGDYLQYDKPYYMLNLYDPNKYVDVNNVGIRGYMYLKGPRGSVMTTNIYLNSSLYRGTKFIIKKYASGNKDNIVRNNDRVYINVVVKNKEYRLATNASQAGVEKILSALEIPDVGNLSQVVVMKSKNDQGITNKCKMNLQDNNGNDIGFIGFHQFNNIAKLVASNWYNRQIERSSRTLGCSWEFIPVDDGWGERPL

Binder | Kd [1] [nM] | koff [2] [s⁻¹] | kon [2] [M⁻¹ s⁻¹] | prolongation of the time to neuroparalysis (against BoNT/A alone) [3] [fold]
B1 | 73 | 0.00082 | 11000 | 1.5
B2 |  |  |  | 2.7
B3 | 20 | 0.0025 | 130000 | 
B4 | 12 | 0.011 | 920000 | 
